Experimental data from patent publication US20200096514.

Legend:
[1] = target: T1, ELA-Q (not fully specified)
T1 chain: GAAFAGK

[2] = target: T2, LAS-Q (not fully specified)
T2 chain: GLGGGAGK

B1: recombinant mouse neutrophil elastase (protein)
chain: SEIVGGRPARPHAWPFMASLQRRGGHFCGATLIARNFVMSAAHCVNGLNFRSVQVVLGAHDLRRQERTRQTFSVQRIFENGFDPSQLLNDIVIIQLNGSATINANVQVAQLPAQGQGVGDRTPCLAMGWGRLGTNRPSPSVLQELNVTVVTNMCRRRVNVCTLVPRRQAGICFGDSGGPLVCNNLVQGIDSFIRGGCGSGLYPDAFAPVAEFADWINSIIRSHNDHLLTHPKDREGRTN
Question: What does the source list for B1?
Answer: reversal of FRET-quenched fluorescent signal (cleavage) [1]: ELA-Q and-to a lesser extent, LAS-Q-are each cleaved by neutrophil elastase; reversal of FRET-quenched fluorescent signal (cleavage) [2]: ELA-Q and-to a lesser extent, LAS-Q-are each cleaved by neutrophil elastase

B2: LasA protease of Pseudomonas aeruginosa (secreted, in culture supernatants) (protein)
chain: APPSNLMQLPWRQGYSWQPNGAHSNTGSGYPYSSFDASYDWPRWGSATYSVVAAHAGTVRVLSRCQVRVTHPSGWATNYYHMDQIQVSNGQQVSADTKLGVYASNINTALCEGGSSTGPHLHFSLLYNGAFVSLQGASFGPYRINVGTSNYDNDCRRYYFYNQSAGTTHCAFRPLYNPGLAL
Question: B2 was tested. Which “cleavage of LAS-Q by P. aeruginosa culture supernatants (fluorescence) set against LasA content by Western blot” value [2] did it give?
Answer: Its value is “the non-cleaving strains lacked LasA in their supernatant, whereas supernatant from the substrate-cleaving strains contained substantial levels of LasA protein”.
